Experimental findings from patent US20110152352, “SMAD PROTEINS CONTROL DROSHA-MEDIATED MIRNA MATURATION” (Tufts University, published 2011) are described below.

The target of series [1] is T1, Smad1 full length (UniProt Q15797 Q15797:1-465). The experiment in a line: pulldown; tRNA and poly dI-dC, 0.1 M KCl, 4 C. The note with it: tags: GST fusion, E. coli. On the procedure: (§1) In vitro GST-SMAD-RNA pull down assay: GST-smad fusion proteins were expressed in E. coli, isolated and bound to glutathione S-sepharose beads. Following partial purification, Smad bound beads were washed 4×5 min at 4° C. in wash buffer (10 mM Tris-HCl pH 7.6, 0.5M LiCl, 0.1% triton) and 1×10 at 4° C. in binding buffer (20 mM Tris-HCl pH 7.6, 0.1M KCl, 0.1% Tween-20, 0.1% Triton). Beads were resuspended in 100 ul binding buffer and pre-incubated with 25 ug tRNA, 1 ng poly-[dI-dC] and 2 μl RNAse inhibitor for 10 minutes before the addition of 10 pmoles synthesized mature miRNA or ˜20 pmoles in vitro transcribed 156 by pri-miR-21. Following 1 hr incubation with rocking at 4° C., beads were washed 4× with binding buffer. 2 consecutive elutions of bound RNA were performed by addition of 100 ul Elution buffer (1% SDS, 0.15M NaCl) followed by rocking at room temperature for 15 min. The eluates were combined, […] Trizol-LS (Invitrogen) was added and the RNA was purified as usual. RNA was re-suspended in 20 μl water and 1 μl was used in a reverse transcriptase reaction followed by quantitative real time PCR to detect relative levels of RNA binding to Smad-GST fusion proteins.

For series [2], the target named is T2, Smad3 full length (UniProt P84022 P84022:1-425). The experiment in a line: pulldown. The note with it: tags: GST fusion, E. coli. On the procedure: as §1
The target in the next series is Smad4 full length (UniProt Q13485 Q13485:1-552). The experiment in a line: pulldown. The note with it: tags: GST fusion, E. coli. On the procedure: as §1
Series [3] deals with T3, Smad1 MH1 domain (UniProt Q15797 Q15797:1-219). The experiment in a line: pulldown; MH1 sufficient. The note with it: tags: GST fusion, E. coli. On the procedure: as §1
In series [4] the target is T1, Smad1 full length. The experiment in a line: pulldown; excess yeast tRNA. The note with it: tags: GST fusion, E. coli. On the procedure: (§2) To examine the interaction of SMAD proteins with double stranded CAGAC sequences of miRNA we performed RNA pull down experiments. Gst-Smad fusion proteins were expressed in E. coli and partially purified. As a proof of principal, we used mature miR-21 sequences (see below). ssRNA oligonucleotides were annealed to make dsRNA. GST-Pull down experiments were performed using the standard methods including aspects of those disclosed herein in the presence of excess amount of non-specific RNAa (yeast tRNAs). Full length GST-SMAD1 fusion protein and a GST-SMAD1 N-terminal (n219) MH1 domain interact with double stranded CAGAC sequences of miR-21
(§3) In vitro GST-SMAD-RNA pull down assay: GST-smad fusion proteins were expressed in E. coli, isolated and bound to glutathione S-sepharose beads. Following partial purification, Smad bound beads were washed 4×5 min at 4° C. in wash buffer (10 mM Tris-HCl pH 7.6, 0.5M LiCl, 0.1% triton) and 1×10 at 4° C. in binding buffer (20 mM Tris-HCl pH 7.6, 0.1M KCl, 0.1% Tween-20, 0.1% Triton). […] RNA was re-suspended in 20 μl water and 1 μl was used in a reverse transcriptase reaction followed by quantitative real time PCR to detect relative levels of RNA binding to Smad-GST fusion proteins.

For series [5], the target named is T3, Smad1 MH1 domain. The experiment in a line: pulldown; excess yeast tRNA. The note with it: tags: GST fusion, E. coli. On the procedure:
as §2, §3

Another series has as its target Smad1 (UniProt Q15797 Q15797:1-465). The experiment in a line: RNA-ChIP. The note with it: tags: Flag, Cos7; hairpin with flanks. On the procedure:
RNA-ChIP. Was performed as previously described [Fukuda, T. et al., Nat Cell Biol 9, 604-611 (2007)]. Briefly, PASMCs or Cos7 cells were crosslinked for 15 minutes with 1% formaldehyde, the cell pellet was resuspended in Buffer A (5 mM PIPES, pH 8.0, 85 mM KCl, 0.5% Nonidet P-40). After 10 min on ice, the crude nuclei fraction was isolated by centrifugation, and then suspended in Buffer B (1% SDS, 10 mM EDTA, 50 mM Tris-HCl, pH 8.1). After nuclei were disrupted by sonication, the lysates were cleared and subjected to immunoprecipitation with anti-Flag, anti-Smad1/5/8, Smad2/3, or p68 antibody, prior to stringent washing, and elution. The RNA was isolated using Trizol (invitrogen). Pellets were resuspended in 100 μl TE and incubated with DNase I (10 U) for 30 min at 37° C. to remove any remaining DNA. Following extraction with phenol:chloroform (5:1), RNA was precipitated with ethanol and dissolved in 20 μl of water. […] of RNA was used for a 20 μl cDNA synthesis reaction. Quantitative PCR reactions were then performed by real-time PCR machine (iQ5, Bio-Rad). Average of three experiments each performed in triplicate with standard errors are presented.

In series [6] the target is T2, Smad3 full length. The experiment in a line: pulldown; control duplex without CAGAC. The note with it: tags: GST fusion, E. coli. On the procedure: as §1
Series [7] has as its target T1, Smad1 full length. The experiment in a line: pulldown; control duplex without CAGAC. The note with it: tags: GST fusion, E. coli. On the procedure: as §1
In series [8] the target is T3, Smad1 MH1 domain. The experiment in a line: pulldown; specific for miR-21 duplex. The note with it: tags: GST fusion, E. coli. On the procedure: as §1

T1 sequence (Q15797 whole entry, the tested form may be a part, one chain of several): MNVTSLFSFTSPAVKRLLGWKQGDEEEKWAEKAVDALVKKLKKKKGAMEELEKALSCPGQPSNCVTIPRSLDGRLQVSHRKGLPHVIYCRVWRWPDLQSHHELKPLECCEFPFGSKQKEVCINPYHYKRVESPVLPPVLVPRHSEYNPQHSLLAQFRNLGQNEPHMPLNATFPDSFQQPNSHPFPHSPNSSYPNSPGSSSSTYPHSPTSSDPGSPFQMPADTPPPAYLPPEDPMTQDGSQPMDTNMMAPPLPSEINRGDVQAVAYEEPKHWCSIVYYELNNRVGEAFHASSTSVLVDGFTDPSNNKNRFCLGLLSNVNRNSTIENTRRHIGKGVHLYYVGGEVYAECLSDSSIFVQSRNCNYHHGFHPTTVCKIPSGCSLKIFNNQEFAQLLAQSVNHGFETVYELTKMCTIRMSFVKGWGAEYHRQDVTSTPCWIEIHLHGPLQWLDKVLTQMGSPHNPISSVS
T3 sequence (Q15797 1-219, one chain of several): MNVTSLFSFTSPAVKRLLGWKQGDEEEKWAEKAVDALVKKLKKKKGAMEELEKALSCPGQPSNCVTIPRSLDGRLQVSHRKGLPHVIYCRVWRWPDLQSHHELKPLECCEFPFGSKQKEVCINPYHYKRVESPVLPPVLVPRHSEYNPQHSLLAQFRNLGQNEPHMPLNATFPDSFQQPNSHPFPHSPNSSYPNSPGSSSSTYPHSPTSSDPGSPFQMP
Chain of Smad4 full length (Q13485 whole entry, the tested form may be a part, one chain of several): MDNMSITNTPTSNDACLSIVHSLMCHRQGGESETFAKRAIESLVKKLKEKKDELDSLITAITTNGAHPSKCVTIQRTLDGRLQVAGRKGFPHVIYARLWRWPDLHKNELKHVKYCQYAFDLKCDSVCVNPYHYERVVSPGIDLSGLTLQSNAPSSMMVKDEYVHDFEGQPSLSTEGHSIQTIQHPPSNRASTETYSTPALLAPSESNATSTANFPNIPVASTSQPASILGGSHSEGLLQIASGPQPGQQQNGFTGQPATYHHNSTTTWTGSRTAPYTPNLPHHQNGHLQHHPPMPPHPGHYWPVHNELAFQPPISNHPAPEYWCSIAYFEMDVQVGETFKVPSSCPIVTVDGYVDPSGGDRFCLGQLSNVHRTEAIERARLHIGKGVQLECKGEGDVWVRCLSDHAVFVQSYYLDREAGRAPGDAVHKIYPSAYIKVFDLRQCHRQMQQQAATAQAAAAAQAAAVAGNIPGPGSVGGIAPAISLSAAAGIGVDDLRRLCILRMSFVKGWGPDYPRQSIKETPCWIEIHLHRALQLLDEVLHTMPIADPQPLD
T2 sequence (P84022 whole entry, the tested form may be a part, one chain of several): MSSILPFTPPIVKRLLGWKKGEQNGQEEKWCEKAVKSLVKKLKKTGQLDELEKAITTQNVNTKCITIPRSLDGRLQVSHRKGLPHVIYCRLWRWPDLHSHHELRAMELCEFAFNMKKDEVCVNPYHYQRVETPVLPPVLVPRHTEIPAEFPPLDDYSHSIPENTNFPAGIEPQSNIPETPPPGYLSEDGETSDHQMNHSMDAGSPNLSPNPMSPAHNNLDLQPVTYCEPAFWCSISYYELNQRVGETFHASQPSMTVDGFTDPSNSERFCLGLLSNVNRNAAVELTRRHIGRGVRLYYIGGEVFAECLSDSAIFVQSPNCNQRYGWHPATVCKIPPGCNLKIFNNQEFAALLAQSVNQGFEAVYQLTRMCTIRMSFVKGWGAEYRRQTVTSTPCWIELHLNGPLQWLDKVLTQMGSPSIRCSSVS
Chain of Smad1 (Q15797 whole entry, one chain of several): as the sequence (Q15797 whole entry, the tested form may be a part, one chain of several) above

B1: miR-21 RNA duplex (dsRNA)
RNA 1: UAGCUUAUCAGACUGAUGUUGA
RNA 2: UCAACAUCAGUCUGAUAAGCUA
Consider B1, for which the binding result with Smad1 full length [1] is “binds”; in the series with Smad3 full length [2], “binds”; with Smad4 full length, “no binding”; with Smad1 MH1 domain [3], “binds”.

B2: miR-21 duplex (annealed oligos) (dsRNA)
RNA 1: UAGCUUAUCAGACUGAUGUUGA
RNA 2: UCAACAUCAGUCUGAUAAGCUA
For the molecule B2, the binding result with Smad1 full length [4] and with Smad1 MH1 domain [5] was “binds” in each case.

B3: pri-miR-21 from pCMV-miR-21 (480 nt; hairpin sequence given) (ssRNA)
RNA: UGUCGGGUAGCUUAUCAGACUGAUGUUGACUGUUGAAUCUCAUGGCAACACCAGUCGAUGGGCUGUCUGACA
In the series with Smad1, B3 came in with a binding signal of 3 fold induction by BMP4.

B4: cel-miR-67 RNA duplex (dsRNA)
RNA 1: UCACAACCUCCUAGAAAGAGUAGA
RNA 2: UCUACUCUUUCUAGGAGGUUGUGA
In the case of B4, the binding result with Smad3 full length [6], with Smad1 full length [7], with Smad1 MH1 domain [8] and with Smad4 full length was “no binding” each time.
